From patent CN117820479A (BEILAI PHARMACEUTICAL CO LTD, dated 2024) come the findings set out here.

In general, EC50 refers to the concentration giving half of the maximal effect. Read a low EC50 as a more potent agent.

For test [1], the target named is IL-17RA and IL-17RC co-expressed on 293F-IL-17RA-IL-17Rc-ACT1-NFκB-Luc reporter cells (UniProt Q96F46). The experiment in a line: FACS on cells overexpressing IL-17RA and IL-17RC.
In another test the target is T1, Biotin-IL-17A-His (UniProt Q16552 24-155, biotinylated (Biotin-IL-17A-His; site not stated)).
T1 construct: also called 靶蛋白; not shown: His tag
The experiment in a line: ELISA: antibody coated at 2 ug/mL, Biotin-IL-17A-His titrated from 10 ug/mL in 5-fold steps (7 points), HRP-streptavidin, OD450. For orientation: An ELISA detects its analyte on a solid surface through an enzyme-linked reagent.

Test [2] has as its target IL-17A重组蛋白 (Human IL-17A重组蛋白, C端6×His标签) (human, UniProt Q16552 24-155, limits assumed). The experiment in a line: cell-based or functional assay.

T1 sequence (Q16552 24-155 limits assumed): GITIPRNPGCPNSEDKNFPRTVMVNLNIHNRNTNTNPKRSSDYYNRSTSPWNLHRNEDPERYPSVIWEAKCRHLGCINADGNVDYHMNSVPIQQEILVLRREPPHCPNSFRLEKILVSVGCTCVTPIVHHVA
Chain of IL-17A重组蛋白 (Human IL-17A重组蛋白, C端6×His标签) (human, UniProt Q16552 24-155, limits assumed) (Q16552 other isoform, or with tags, fused parts or gaps limits assumed): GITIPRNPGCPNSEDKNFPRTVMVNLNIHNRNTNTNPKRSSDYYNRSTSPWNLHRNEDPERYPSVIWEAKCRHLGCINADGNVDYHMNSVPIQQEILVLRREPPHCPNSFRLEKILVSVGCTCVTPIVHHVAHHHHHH

For the molecule “IL-17A重组蛋白 (Human IL-17A重组蛋白, C端6×His标签) (from UniProt Q16552 24-155) (ligand)”, the 阳性率 in test [1] is over 90%.

B1: Ixekizumab (阳性对照抗体) (antibody, human IgG4 S228P, kappa, V domains shown)
VH: QVQLVQSGAEVKKPGSSVKVSCKASGYSFTDYHIHWVRQAPGQGLEWMGVINPMYGTTDYNQRFKGRVTITADESTSTAYMELSSLRSEDTAVYYCARYDYFTGTGVYWGQGTLVTVSS
VL: DIVMTQTPLSLSVTPGQPASISCRSSRSLVHSRGNTYLHWYLQKPGQSPQLLIYKVSNRFIGVPDRFSGSGSGTDFTLKISRVEAEDVGVYYCSQSTHLPFTFGQGTKLEIKR
notes: Made in house from the variable regions cloned into pcDNA3.4-hIgG4 and pcDNA3.4-hIgKc vectors; also called 对照抗体Ixekizumab; 阳性抗体
Consider B1, for which the EC50 in the test with Biotin-IL-17A-His amounted to 10.1 µg/mL. For the same molecule, the “IC50, 阻断Human IL-17A蛋白激活293F-IL-17RA-IL-17Rc-ACT1-NFκB-Luc (luciferase reporter)” value in test [2] stood at 1.36 µg/mL.

B2: 串联抗体G12-1-F8 (IL-17A特异性串联抗体) (Fc fusion)
chain: EVQLVESGGGLVQPGGSLRLSCVAWGFSFSIYSVNWYRQAPGKERELVAGITKGGLKDYADSVKGRFTISRDNAKNAVYLRMNMLKPEDTAVYYCNAGRENGYWGQGTQVAVSTGGGGSGGGGSGGGGSEVQLVESGGGLVQPGGSLRLSCAASGFSIHIYAMGWYRQAPGKQRELVATITRGGVTNNADSVKGRFTISRDNAKNTAYLQMNSLKPEDTAVYYCNAGGTNGGYWGQGTQVTVSS
In the test with Biotin-IL-17A-His, B2 gave an EC50 of 2.42 µg/mL. Further, the “IC50, 阻断Human IL-17A蛋白激活293F-IL-17RA-IL-17Rc-ACT1-NFκB-Luc (luciferase reporter)” value in test [2] stood at 0.759 µg/mL.
